Laboratory results as given in patent US20030198634A1 (published 2003).

Legend:
[1] = molecular target: T1, human lymphotoxin (TNFβ) (human, UniProt P01374 35-205, limits assumed); test: cell-based or functional assay
T1 sequence (looked up): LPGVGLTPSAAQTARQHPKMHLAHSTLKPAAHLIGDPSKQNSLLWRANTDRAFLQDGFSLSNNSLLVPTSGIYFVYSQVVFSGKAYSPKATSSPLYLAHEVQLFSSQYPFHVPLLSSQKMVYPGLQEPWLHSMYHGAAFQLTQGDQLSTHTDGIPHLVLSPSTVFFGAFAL

[2] = molecular target: human tumor necrosis factor-α (TNFα) (human, UniProt P01375 77-233); test: cell-based or functional assay
human tumor necrosis factor-α (TNFα), sequence (P01375 77-233): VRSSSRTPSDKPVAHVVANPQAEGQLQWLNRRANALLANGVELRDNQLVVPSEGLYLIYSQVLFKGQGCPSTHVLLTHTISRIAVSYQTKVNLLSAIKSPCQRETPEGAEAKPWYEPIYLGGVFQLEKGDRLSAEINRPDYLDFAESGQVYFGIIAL

Molecule: p55-sf2 (p55 TNF receptor/IgG1 heavy chain single fusion with truncated light chain JCK) (from UniProt P19438) (Fc fusion)
- amount needed for the same degree of inhibition of TNFβ, against p75P-sf2 (fold against p75P-sf2) [1]: 3

B1: chimeric mouse/human IgG1 anti-platelet mAb (7E3) (antibody, INN chains, looked up, V domains shown)
VH: EVQLQQSGTVLARPGASVKMSCEASGYTFTNYWMHWVKQRPGQGLEWIGAIYPGNSDTSYIQKFKGKAKLTAVTSTTSVYMELSSLTNEDSAVYYCTLYDGYYVFAYWGQGTLVTVSA
VL: EIVLTQSPVTLSVTPGDSVSLSCRASRDISNNLHWFQQTSHESPRLLIKYASQSMSGIPSRFSGSGSGTDFTLSINSVETEDFGMYFCQQTNSWPYTFGGGTKLEIK
modifications: IgG1
- IL-6 in supernatant of FS-4 fibroblasts (ng/ml), rhTNF 0.3 ng/ml, antibody 4 µg/ml (no antibody: 1.36) [2]: 1.6 ng/mL
- IL-6 in supernatant of FS-4 fibroblasts (ng/ml), rhTNF 1.5 ng/ml, antibody 4 µg/ml (no antibody: 2.00) [2]: 1.96 ng/mL
- IL-6 in supernatant of FS-4 fibroblasts (ng/ml), rhTNF 7.5 ng/ml, antibody 4 µg/ml (no antibody: 2.56) [2]: 2.16 ng/mL

B2: p75-sf2 (complete extracellular domain of p75 fused to the IgG1 heavy chain) (Fc fusion)
chain: QLPAQVAFTPYAPEPGSTCRLREYYDQTAQMCCSKCSPGQHAKVFCTKTSDTVCDSCEDSTYTQLWNWVPECLSCGSRCSSDQVETQACTREQNRICTCRPGWYCALSKQEGCRLCAPLRKCRPGFGVARPGTETSDVVCKPCAPGTFSNTTSSTDICRPHQICNVVAIPGNASMDAVCTSTSPTRSMAPGAVHLPQPVSTRSQHTQPTPEPSTAPSTSFLLPMGPSPPAEGSTGDGTLVTVSS
- amount needed for the same degree of inhibition of TNFβ, against p75P-sf2 [1]: 3 fold against p75P-sf2

B3: p75P-sf2 (p75 amino acids 1-182 fused to the IgG1 heavy chain; lacks the C-terminal 53 amino acids of the p75 extracellular domain) (Fc fusion)
chain: QLPAQVAFTPYAPEPGSTCRLREYYDQTAQMCCSKCSPGQHAKVFCTKTSDTVCDSCEDSTYTQLWNWVPECLSCGSRCSSDQVETQACTREQNRICTCRPGWYCALSKQEGCRLCAPLRKCRPGFGVARPGTETSDVVCKPCAPGTFSNTTSSTDICRPHQICNVVAIPGNASMDAVCTSTSDGTLVTVSS
- IC50 = concentration of fusion protein required to inhibit 2 ng/ml (39.2 pM) TNFα by 50%, WEHI 164 cytotoxicity assay [2]: 70 pM
- Molar ratio fp: TNFα at IC50, WEHI 164 cytotoxicity assay [2]: 1.8
